Source: patent publication US20210388087A1 (Chugai, published 2021)
Changes are numbered by the printed parent chain.

T1: Human CD3eg linker (human)
T1 construct: Single chain: CD3 epsilon and gamma subunits joined by a 29-mer linker, Flag-tag at the C-terminus; also called recombinant human CD3
T1 chain: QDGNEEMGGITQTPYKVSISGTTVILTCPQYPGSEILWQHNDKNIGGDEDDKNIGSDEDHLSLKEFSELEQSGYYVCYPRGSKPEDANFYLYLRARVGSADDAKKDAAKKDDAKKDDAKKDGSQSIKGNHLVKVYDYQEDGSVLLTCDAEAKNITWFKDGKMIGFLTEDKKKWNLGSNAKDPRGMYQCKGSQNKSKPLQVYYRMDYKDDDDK

B1: H1673L0581 (antibody, V domains shown)
VH: QVQLVESGGGLVQPGRSLRLSCAASGFVFSNVWFHWVRQAPGKGLEWVAQIKDKWNAYADYYAPSVKERFTISRDDSKNSIYLQMNSLKTEDTAVYYCHYIHYASASTLLPAEGIDAWGQGTTVTVSS
VL: DIVMTQSPLSLPVTPGEPASISCQPSQEVVHMNRNTYLHWYQQKPGQAPRLLIYKVSNRFPGVPDRFSGSGSGTDFTLKISRVEAEDVGVYYCAQGTSHPFTFGQGTKLEIK
notes: Dual-Ig, IgG; also called dBBDu183H1673/dBBDu072L0581
B2: H1649L0943 (antibody, V domains shown)
VH: B1 VH with W55Y, I101V, I115V
VL: B1 VL with Q27E, R59L, S98H
notes: Dual-Ig, IgG; also called dBBDu183H1649/dBBDu072L0943
B3: H1652L0943 (antibody, V domains shown)
VH: B1 VH with K54Y, W55Y, K67E, E68G, I101V, I115V
VL: B1 VL with Q27E, R59L, S98H
notes: Dual-Ig, IgG; also called dBBDu183H1652/dBBDu072L0943
B4: H1643L0581 (antibody, V domains shown)
VH: B1 VH with V28K, K54Y, W55Y, D60A, E68G, I101V, I115V
VL: B1 VL
notes: Dual-Ig, IgG; also called H1643L581; dBBDu183H1643/dBBDu072L0581
B5: H1649L0581 (antibody, V domains shown)
VH: B1 VH with W55Y, I101V, I115V
VL: B1 VL
notes: Dual-Ig, IgG; also called dBBDu183H1649/dBBDu072L0581
B6: H1610L0939 (antibody, V domains shown)
VH: B1 VH with F34M, D60A, E68G
VL: B1 VL with R59V, S98H
notes: Dual-Ig, IgG; also called H1610L939; dBBDu183H1610/dBBDu072L0939
B7: H1571L0581 (antibody, V domains shown)
VH: B1 VH with V28K, W55Y, D60T, E68G, I101V, E113F, I115V
VL: B1 VL
notes: Dual-Ig, IgG; also called dBBDu183H1571/dBBDu072L0581
B8: H1647L0581 (antibody, V domains shown)
VH: B1 VH with V28K, V32T, K54Y, W55Y, A57D, D60A, E68G, I101V, I115V
VL: B1 VL
notes: Dual-Ig, IgG; also called dBBDu183H1647/dBBDu072L0581
B9: H1550L0918 (antibody, V domains shown)
VH: B1 VH with V28K, F34M, W55Y, D60A, E68G, E113F, I115V
VL: B1 VL with R34N, N35V, T36V
notes: Dual-Ig, IgG; also called H1550L918; dBBDu183H1550/dBBDu072L0918
B10: H1651L0581 (antibody, V domains shown)
VH: B1 VH with W55Y, K67E, E68G, I101V, I115V
VL: B1 VL
notes: Dual-Ig, IgG; also called dBBDu183H1651/dBBDu072L0581
B11: H0868L0581 (antibody, V domains shown)
VH: B1 VH with V28K, F34M, W55Y, D60A, E68G, I101V, E113F, I115V
VL: B1 VL
notes: Dual-Ig, IgG; also called H868L581; dBBDu183H0868/dBBDu072L0581
B12: H1610L0581 (antibody, V domains shown)
VH: B1 VH with F34M, D60A, E68G
VL: B1 VL
notes: Dual-Ig, IgG; also called H1610L581; dBBDu183H1610/dBBDu072L0581
B13: GPC3 ERY22-dBBDu_189/L116 (bispecific antibody, human IgG1, kappa, L234A L235A, N297A)
heavy 1: DIVMTQSPLSLPVTPGEPASISCRSSQSLVHSNRNTYLHWYQQKPGQAPRLLIYKVSNRFSGVPDRFSGSGSGTDFTLKISRVEAEDVGVYYCSQNTHVPPTFGQGTKLEIKSSASTKGPSVFPLAPSSKSTSGGTAALGCLVKDYFPEPVTVSWNSGALTSGVHTFPAVLQSSGLYSLSSVVTVPSSSLGTQTYICNVNHKPSNTKVDKKVEPKSCDKTHTCPPCPAPEAAGGPSVFLFPPKPKDTLMISRTPEVTCVVVDVSHEDPEVKFNWYVDGVEVHNAKTKPREEQYASTYRVVSVLTVLHQDWLNGKEYKCKVSNKALPAPIEKTISKAKGQPREPQVCTLPPSRDELTKNQVSLWCLVKGFYPSDIAVEWESNGQPENNYKTTPPVLDSDGSFFLYSKLTVDKSRWQQGNVFSCSVMHEALHNHYTQKSLSLSPHHHHHHHH
light 1: QVQLVQSGAEVKKPGASVKVSCKASGYTFTDYEMHWIRQPPGQGLEWIGAIDPKTGDTAYSQKFKGRVTLTADKSTSTAYMELSSLTSEDTAVYYCTRFYSYTYWGQGTLVTVSSASVAAPSVFIFPPSDEQLKSGTASVVCLLNNFYPREAKVQWKVDNALQSGNSQESVTEQDSKDSTYSLSSTLTLSKADYEKHKVYACEVTHQGLSSPVTKSFNRGEC
heavy 2: QVQLVESGGGLVQPGRSLRLSCAASGFTFSNAWMHWVRQAPGKGLEWIAQIKDRSNQYATYYAPSVKGRFTISRDDSKNSIYLQMNSLKTEDTAVYYCHYVHYAQASSLLPSFGVDAWGQGTTVTVSSASTKGPSVFPLAPSSKSTSGGTAALGCLVKDYFPEPVTVSWNSGALTSGVHTFPAVLQSSGLYSLSSVVTVPSSSLGTQTYICNVNHKPSNTKVDKKVEPKSCDKTHTCPPCPAPEAAGGPSVFLFPPKPKDTLMISRTPEVTCVVVDVSHEDPEVKFNWYVDGVEVHNAKTKPREEQYASTYRVVSVLTVLHQDWLNGKEYKCKVSNKALPAPIEKTISKAKGQPREPQVYTLPPSRCELTKNQVSLSCAVKGFYPSDIAVEWESNGQPENNYKTTPPVLDSDGSFFLVSKLTVDKSRWQQGNVFSCSVMHEALHNHYTQKSLSLSPDYKDDDDK
light 2: DIVMTQSPLSLPVTPGEPASISCSSSQELVHANRQIYLHWYQQKPGQAPRLLIYKVANRFPGVPDRFSGSGSGTDFTLKISRVEAEDVGVYYCAQGTQVPFTFGQGTKLEIKRTVAAPSVFIFPPSDEQLKSGTASVVCLLNNFYPREAKVQWKVDNALQSGNSQESVTEQDSKDSTYSLSSTLTLSKADYEKHKVYACEVTHQGLSSPVTKSFNRGEC
B14: GPC3 ERY22-dBBDu_189/L119 (bispecific antibody, human IgG1, kappa, L234A L235A, N297A)
heavy 1: B13 heavy 1
light 1: B13 light 1
heavy 2: B13 heavy 2
light 2: B13 light 2 with S24T, S25A, A32I, Q35F, Y37F, A57S, P61I, T97S
B15: H183/L072 (antibody, V domains shown)
VH: B1 VH with V28T, V32A, F34M, W55G, D60A, E68G, I101V, L109V, E113F, I115V
VL: B1 VL with P25A, V29L, H99V
notes: Dual-Fab antibody (Dual-Ig), bivalent IgG; also called parental Dual-Fab H183L072; dBBDu183H/dBBDu072L

Each binder was assayed against T2, Human CD137 ECD (human) (assay: SPR Biacore T200, 37 C, Ab captured on anti-human Fc, antigen as analyte;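 further: recombinant human CD137 flowed over antibodies held by amine-coupled anti-human Fc on a CM4 chip, run in ACES pH 7.4 buffer with 150 mM NaCl and 0.05% Tween 20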).
T2 construct: also called human CD137 extracellular domain; recombinant human CD137
T2 sequence (chain, as listed by the source limits assumed): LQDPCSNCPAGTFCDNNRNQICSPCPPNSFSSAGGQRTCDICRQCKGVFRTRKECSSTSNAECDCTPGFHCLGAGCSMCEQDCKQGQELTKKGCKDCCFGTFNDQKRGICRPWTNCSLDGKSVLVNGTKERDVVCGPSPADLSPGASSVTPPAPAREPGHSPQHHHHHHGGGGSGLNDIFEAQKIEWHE
Description: (§1) Binding affinity of Dual-Fab antibodies (Dual-Ig) to human CD3 were assessed at 25 degrees C. using Biacore T200 instrument (GE Healthcare). Anti-human Fc (GE Healthcare) was immobilized onto all flow cells of a CM4 sensor chip using amine coupling kit (GE Healthcare). Antibodies were captured onto the anti-Fc sensor surfaces, then recombinant human CD3 or CD137 was injected over the flow cell. All antibodies and analytes were prepared in ACES pH 7.4 containing 20 mM ACES, 150 mM NaCl, 0.05% Tween 20, 0.005% NaN3. Sensor surface was regenerated each cycle with 3M MgCl2. […] CD137 binding affinity assay was conducted in same condition except assay temperature was set at 37 degrees C.

Kd [nM]	koff [s⁻¹]	kon [M⁻¹ s⁻¹]	Binder
80.4	0.00096	11900	B1
32.8	0.000468	14300	B2
36.4	0.00047	12900	B3
49.4	0.000606	12300	B4
42.8	0.000553	12900	B5
61.8	0.000801	13000	B6
86.8	0.00105	12100	B7
64.8	0.000647	9980	B8
530	0.00579	10900	B9
43.2	0.000603	14000	B10
111	0.00136	12200	B11
103	0.0011	10700	B12

Each binder was assayed against human CD137 on HDLM-2 cells (human, UniProt Q07011 24-255) (assay: cell-based or functional assay).
human CD137 on HDLM-2 cells, sequence (Q07011 24-255): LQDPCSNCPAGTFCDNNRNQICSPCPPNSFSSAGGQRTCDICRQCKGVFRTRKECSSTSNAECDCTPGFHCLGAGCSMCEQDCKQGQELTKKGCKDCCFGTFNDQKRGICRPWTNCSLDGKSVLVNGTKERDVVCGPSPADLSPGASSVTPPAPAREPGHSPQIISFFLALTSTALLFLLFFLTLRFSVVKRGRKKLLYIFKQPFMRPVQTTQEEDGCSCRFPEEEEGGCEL

Agonistic activity compared to B, antibody 6 ug/mL [%]	Agonistic activity compared to B, antibody 30 ug/mL [%]	Agonistic activity compared to Ctrl, antibody 6 ug/mL [%]	Agonistic activity compared to Ctrl, antibody 30 ug/mL [%]	hIL-6 (pg/mL), antibody 6 ug/mL [pg/mL]	hIL-6 (pg/mL), antibody 30 ug/mL [pg/mL]	Binder
8.28	19.2	28.7	72.9	1300	1570	B13
6.92	20.4	24	77.3	1260	1610	B14

Molecular target: T1, Human CD3eg linker
Experiment: SPR Biacore T200, 25 C, Ab captured on anti-human Fc, antigen as analyte;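 further: Anti-Fc amine-coupled to a CM4 chip, recombinant human CD3 flowed over in 20 mM ACES buffer pH 7.4 with 150 mM NaCl and 0.05% Tween 20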
Description: as §1

Kd [nM]	koff [s⁻¹]	kon [M⁻¹ s⁻¹]	Binder
340	0.012	35400	B15
13.3	0.00106	79600	B1
789	0.0481	61000	B2
265	0.0251	94600	B4
449	0.0336	75000	B5
50.7	0.00253	50000	B6
110	0.0156	142000	B7
43.8	0.00316	72000	B9
517	0.0371	71800	B10
157	0.0194	123000	B11
20.9	0.00142	68000	B12
